The values below come from the DeepSol protein solubility set.

The nature of this data set: soluble on expression in E. coli; label from the status in PepcDB or PDB records.
Regarding “MFVDREEELKALNEKLDSNNFEFIVIYGRRRIGKTKLALKSVENREHIYYLAVEGDNLKHFKRYASKVEPTIEYAKEDWEAYFNFLKDKIIIIDEFPNLIKENPNVLSLFQRIVDIHLKNTKTKLIILGSSISMMGEKVLSYKSPLYGRKTGVLKIKPLKFKHLKEFFPKAIWEELVEIYGFADGIPYYLEKVKLPFWDYLDKEIKRVDSFLRYEVDFLMKYEFEEPTTYKKILEAIAFGNHTLGEIKNYLGFKHSDLTPYLKNLIEVEFIERQTPITESVKSKKGRYYIKDNFIAFYFRYIFPNLSAIEEGIFDIEEIKADYNQYLGFVFEKVAKEFLIELNKMNKLPFKFLKIGRWWHRGEEIDLIALNDNDKKALFVEVKWKDLKDRDVKKIYRDLYRKSKLVGLDDYEKYYAIVGKKIESKENGDCLLFDLEDFSLEHHHHHH”, the “soluble on expression in E. coli” value is recorded as “soluble”.
Consider “MGSDKIHHHHHHMTGQNPAPDEIVIDTGNPHPARMYDWFLGGKDNYPVDEEMGRQLLALDPRVPVMAKVNRAFMHRATRWLAMNGVRQFLDIGTGIPTEPNLHQIAQQVAPESRVVYCDNDPIVLAHAAALLRSTPEGVTEYVQADVRDPDTIVEQAGKVLDFSKPVALSLVALLHFVSDEDGAYELVDRLLAEVPSGSYLMLSHATADFTPKKSEEAGELYKARSLTLALRSRDEVARFFRDLELVEPGVEVPDKWRPELGEPVPGQDDEPIPGYAAVGRKP”, for which the “soluble on expression in E. coli” value is listed as “not soluble”.
Regarding “GSPGILMASQGTKRSYEQMETGGERQNATEIRASVGRMVGGIGRFYIQMCTELKLSDQEGRLIQNSITIERMVLSAFDERRNRYLEEHPSAGKDPKKTGGPIYRRRDGKWVRELILYDKEEIRRIWRQANNGEDATAGLTHMMIWHSNLNDATYQRTRALVRTGMDPRMCSLMQGSTLPRRSGAAGAAIKGVGTMVMELIRMIKRGINDRNFWRGENGRRTRIAYERMCNILKGKFQTAAQKAMMDQVRESRNPGNAEIEDLIFLARSALILRGSIAHKSCLPACVYGLAVASGYDFEREGYSLVGIDPFRLLQNSQVFSLIRPNENPAHKSQLVWMACHSAAFEDLRVSSFIRGTRVIPRGQLSTRGVQIASNENVEAMDSSTLELRSRYWAIRTRSGGNTNQQRASAGQISVQPTFSVQRNLPFERATIMAAFKGNTEGRTSDMRTEIIRMMESARPEDVSFQGRGVFELSDEKATNPIVPSFDMSNEGSYFFGDNAEEYDN”, the “soluble on expression in E. coli” value was “soluble”.
“MEAGGLPLELWRMILAYLHLPDLGRCSLVCRAWYELILSLDSTRWRQLCLGCTECRHPNWPNQPDVEPESWREAFKQHYLASKTWTKNALDLESSICFSLFRRRRERRTLSVGPGREFDSLGSALAMASLYDRIVLFPGVYEEQGEIILKVPVEIVGQGKLGEVALLASIDQHCSTTRLCNLVFTPAWFSPIMYKTTSGHVQFDNCNFENGHIQVHGPGTCQVKFCTFKNTHIFLHNVPLCVLENCEFVGSENNSVTVEGHPSADKNWAYKYLLGLIKSSPTFLPTEDSD”: the “soluble on expression in E. coli” value is “soluble”.
In the case of “AESSADKFKRQHMDTEGPSKSSPTYCNQMMKRQGMTKGSCKPVNTFVHEPLEDVQAICSQGQVTCKNGRNNCHKSSSTLRITDCRLKGSSKYPNCDYTTTDSQKHIIIACDGNPYVPVHFDASV”, the “soluble on expression in E. coli” value is listed as “soluble”.
As to “MCTALMAIPEDGDTEVVSEKTFKVFSLLNLDAPYLHDKAHVTEEEEITGCCGRRKGALIATMQVDEIGVMPGMTSKISLTVENKTKKRKKWMRKKDNHECVLLSLCQQLDFVAVNRNDPMMIDRKSITIAVESHGTCKTKAGVGPQTKEIEFSVPPNLPPTSIHANRLVTVSYFFKLDLDHFDLVLPVIVGSVKSSASNGSEK”, the “soluble on expression in E. coli” value is “not soluble”.
For “MGSDKIHHHHHHMQPSAVTNTTNLTASPSQFYTWQNYRCTYEIHQPTNTTSEGIPLLLIHPIGVGLSRQFWQRFCHEWYNSGQRNSIYNPDLLGCGESDMPHLAYTPSDWAEQLQYFLQTVVRQPVIVVVQGALLPVAIALVQKESNLISRLVLSGPPTWALMTNKPPEWQQKFIWNVLDSPLGIPFYRYARTPKFLRSFSTRQLFASESAVDAEWLNTLVAGAENPASRHAVFSFLAGFWRQDYTNFMASIQQPTLAVVGETASSISQNNKKETPDDRLANYLACFPQSRGIKINGRNVLPYESTAEFVAAIAPFINEVS”, the “soluble on expression in E. coli” value is listed as “not soluble”.
Turning to “GLVPRGSHMTGRMLTLDGNPAANWLNNARTKWSASRADVVLSYQQNNGGWPKNLDYNSVGNGGGGNESGTIDNGATITEMVFLAEVYKSGGNTKYRDAVRKAANFLVNSQYSTGALPQFYPLKGGYSDHATFNDNGMAYALTVLDFAANKRAPFDTDVFSDNDRTRFKTAVTKGTDYILKAQWKQNGVLTVWCAQHGALDYQPKKARAYELESLSGSESVGVLAFLMTQPQTAEIEQAVRAGVAWFNSPRTYLEGYTYDSSLAATNPIVPRAGSKMWYRFYDLNTNRGFFSDRDGSKFYDITQMSLERRTGYSWGGNYGTSIINFAQKVGYL”, the “soluble on expression in E. coli” value was “soluble”.
Turning to “MSHYDILQAPVISEKAYSAMERGVYSFWVSPKATKTEIKDAIQQAFGVRVIGISTMNVPGKRKRVGRFIGQRNDRKKAIVRLAEGQSIEALAGQA”, the “soluble on expression in E. coli” value is reported as “soluble”.
As for “MGSDKIHHHHHHMDEIELRHILHMNPELSFKEYRTKETLRKAVIEIGYEKIIEVAGTGLVIEKKETEDPYVVLRADMDALPIKEETGWEFASRNEYMHACGHDFHMSALYGAMKRLRNVKKNFLFVFQPAEETGGGAKEVVDFLKDKYEIKAAVGFHVTDEYDAGTVASRPGVLFASATEFDVYFKGVPAHVAFAEKGKDALKAAVSFLGWLYNKKWNALVGVGKISGGRARNIVPDEIKLEGTIRSEALRITEEVISNMVKQLGELKEEMGVDFAVERGSVYPEVKVDQNLFETLRETCQRLGFSFVECDMKWTGEDFGYFSQVFPSLLFWFGVGEGERFGLHHPRFLPNDRYIPMAADLLAELAMVI”, the “soluble on expression in E. coli” value was “not soluble”.
For “MSLSINIKAVTDDNRAAILDLHVSQNQLSYIESTKVCLEDAKECHYYKPVGLYYEGDLVGFAMYGLFPEYDEDNKNGRVWLDRFFIDERYQGKGLGKKMLKALIQHLAELYKCKRIYLSIFENNIHAIRLYQRFGFQFNGELDFNGEKVMVKELEGGSHHHHHH”, the “soluble on expression in E. coli” value is “soluble”.
As to “MEKIWLDSYEKGVSAEIDITQYNSVSDVFRQSVEKFADQPAFQNMGKTLTYAETGKLATDFASYLQNVLKLPRGERVAIMLPNVLQYPVALFGILQAGLVAVNTNPLYTPRELEHQLKDSGATAIIVLENFANTLELVLPRTQIKHVIVASVGEMFGLLKGSLINFVIRKIKKMVPEYRIRETVSFQTALKEGAKHVFQPVALNREDTALLQYTGGTTGVAKGAVLSHGNICANMLQAKEWIKNQLREGKETVIAALPLYHIFALTVNLMIFANAGSKIILITNPRDMKGFIGELKKQRVNVFIGVNTLFNAMVNRPDFAEVDFSELRLTLGGGMATQKAVAEKWKKITGTPIVEAYGLTEASPGVCCNPLNIESYSGSIGLPVSSTEVELRDANGKEVPVGQPGELWVKGPQVMQGYWNRPEETAKAIDARGFLETGDIAVMDEKGWLKLVDRKKDLVVVSGFNVYPNEIEEVIAHHGKVMEVACIGVPDEKTGEALKVFVVKKDPSLTKEELIAFCRTELTAYKVPKNIEFRDELPKSNVGKILRRELRQSTGK”, the “soluble on expression in E. coli” value is on record as “not soluble”.
With “MKVAVLGAAGGIGQALALLLKTQLPSGSELSLYDIAPVTPGVAVDLSHIPTAVKIKGFSGEDATPALEGADVVLISAGVARKPGMDRSDLFNVNAGIVKNLVQQVAKTCPKACIGIITNPVNTTVAIAAEVLKKAGVYDKNKLFGVTTLDIICSNTFVAELKGKQPGEVEVPVIGGHSGVTILPLLSQVPGVSFTEQEVADLTKRIQNAGTEVVEAKAGGGSATLSMGQAAARFGLSLVRALQGEQGVVECAYVEGDGQYARFFSQPLLLGKNGVEERKSIGTLSAFEQNALEGMLDTLKKDIALGQEFVNK”, the “soluble on expression in E. coli” value was “soluble”.
In the case of “MGSDKIHHHHHHMKYTVIICDDNLNHASNLALKIGIAAMVDSGDNPDTEIDLEIGKIAQNALDVIEYLKENPISGGIYFLDIELSQEKNAMNGIDLAEQVKQLDPRAQIIFVTAYNEYMEMTFERRIGAVDYINKSNPNLQNRLNETLQDTVRRISKENYSKKMTFSYRLGRIIKNINIDDIYYISTTKAPHKLKLVKNDGTAEFAGDIKSVDKQNEFLTKVSQSYLVNPKNIVQINLKKKEITLSNGDAIKFSRRFTHVMKDMINTYNLKQNNYQI”, the “soluble on expression in E. coli” value is reported as “not soluble”.
As to “GPGSMSYYCSGGHCLKYATPGREPPDPQLFPHYMQNAQNLWLHFSEWWPHGDGGSCPAPPTKGVVFIVPGLGEHTGRYDSVALRLNQEGYVVFSMDNQGTGGSEGERLYVECFTHFVDDVCAFVVFIQTRYAALKSQPTFLMGHSMGGLIATLVAQRDASGFRGVVLSGPALGLSKPVPCFMRSLAHFLSQWFPKLPVRKLDPDLVSYNTPVVQLVKQDPFYSNVTLRARFVDEMLIAQDRAAEAAGTSQFPFLIVHGEEDQLCSLETSKSFFKSALSEDKNLVSYPRAGHEVLTELCRAEVMAEVIKFIDERAR”, the “soluble on expression in E. coli” value is recorded as “not soluble”.
Take “MGSDKIHHHHHHGTVSWNLREMLAHAEETRKLMPICMDVRAIMATIQRKYKGIKIQEGIVDYGVRFFFYTSKEPVASIITKLNSLNEPLVTMPIGYVTHGFNLEEAARCMRSLKAPAVVSVSSPDAVTTYNGYLTSSSKTSEEHFVETVSLAGSYRDWSYSGQRTELGVEFLKRGDKIVYHTLESPVEFHLDGEVLSLDKLKSLLS”: the “soluble on expression in E. coli” value was “soluble”.
With “GSHMASEKVAVETSVYLSELEWKSASTGYGEIQKDASCDGNTITLKGENGEKVSYDKGIGTHAHSEIVYSLEGLDYYDYFETFVGVDQEMAGTVASISFEVYLDNEKVFDSGLMTGDTTQKHVKVPIAGKNTLKLVVKDGGDSIGSDHGSFGDAKLT”, the “soluble on expression in E. coli” value is “soluble”.
With “MMKRQTWPEPTIPVSQQFARGNFPVGIICEHPGEVNAYRYSSEEKRAMEHATEEQVQDLRCAAEVHRQVRRYAQSFIKPGISLLSMTDRIEKKLEELIEKDGLNRGQAFPTGCSLNHVAAHYTPNTGDKCVLMYDDVMKVDFGTQINGRIIDCAWTVAFKDEYEPLLTAVKEATYEGVKQAGIDVRLCDVGAAIQEVMESYEVELNGKVYPVKSIRNLSGHTIAPYVIHGGKSVPIVRGGEATRMEEGELFAIETFGSTGRGFVQEDMECSHYMMVPGGEKTQVRSDKAQQLLRHIHKTYNTLAFARKWLDRDGHDRHLLNLNQLVEAGAVNKYPPLCDIRGCYTAQLEHTLILKPTAKEILSKGDDY”, the “soluble on expression in E. coli” value is on record as “not soluble”.
Next, “MGSDKIHHHHHHMKNHTYKEIKNIYGKISPFEFKDKLIDIAKYTAKENNRELLDAGRGNPNWTCSTAREAFFTFGHFAITETRSNWDLGHLAGMPQKKGIKERFFKFINENIDMPGAYLARDIINFGINELGFDGDEFVHELADGIIGDNYPLPDRMLPHMEKIVHDYLVQEMKYDISGKYGDVEIFAVEGATAAMCYIFDSLMANELLKKGDTIALMTPIFTPYLEIPNLPRYDFKVVNINANEVDEKGAHTWQYTKKELEKLRDKSIKALFVVNPNNPASIAMDETSCNNLIDVIENYNKDLMIISDDVYGTFVEDFSSLMSKLPYNTVGVYSYSKYFGVTGWRLGTFALHKKNVFDKKINDLTGELKKSVDKRYSDMSLNPSSLSFMERVVADSRLVALNHTAGLSTPQQVQMAFFSAFALIDKVDAYKKLNMSICHRRQKLLFEALELPINENKNNAAYYTQFDIEEWAKLNYGEDLFKFISKTASPVDVLYKLANDYSVVLLSGNGFYGPEWSIRISLANLYDEAYTKIGKAIREILNGYIVEWQKIKK”: “not soluble”.
